# Reference: patent US20210047418A1 (VESTLANDETS INNOVASJONSSELSKAP, published 2021)
# T1: human integrin α11-EGFP (human, UniProt Q9UKX5 23-1188)
# T1 construct: whole, on cells; Fusion of about 180 kDa by the legend; In the Western blot it stood as denatured protein from cell lysate; also called hu α11-EGFP; C2C12-hu α11-EGFP; not shown: EGFP tag
# T1 sequence (looked up): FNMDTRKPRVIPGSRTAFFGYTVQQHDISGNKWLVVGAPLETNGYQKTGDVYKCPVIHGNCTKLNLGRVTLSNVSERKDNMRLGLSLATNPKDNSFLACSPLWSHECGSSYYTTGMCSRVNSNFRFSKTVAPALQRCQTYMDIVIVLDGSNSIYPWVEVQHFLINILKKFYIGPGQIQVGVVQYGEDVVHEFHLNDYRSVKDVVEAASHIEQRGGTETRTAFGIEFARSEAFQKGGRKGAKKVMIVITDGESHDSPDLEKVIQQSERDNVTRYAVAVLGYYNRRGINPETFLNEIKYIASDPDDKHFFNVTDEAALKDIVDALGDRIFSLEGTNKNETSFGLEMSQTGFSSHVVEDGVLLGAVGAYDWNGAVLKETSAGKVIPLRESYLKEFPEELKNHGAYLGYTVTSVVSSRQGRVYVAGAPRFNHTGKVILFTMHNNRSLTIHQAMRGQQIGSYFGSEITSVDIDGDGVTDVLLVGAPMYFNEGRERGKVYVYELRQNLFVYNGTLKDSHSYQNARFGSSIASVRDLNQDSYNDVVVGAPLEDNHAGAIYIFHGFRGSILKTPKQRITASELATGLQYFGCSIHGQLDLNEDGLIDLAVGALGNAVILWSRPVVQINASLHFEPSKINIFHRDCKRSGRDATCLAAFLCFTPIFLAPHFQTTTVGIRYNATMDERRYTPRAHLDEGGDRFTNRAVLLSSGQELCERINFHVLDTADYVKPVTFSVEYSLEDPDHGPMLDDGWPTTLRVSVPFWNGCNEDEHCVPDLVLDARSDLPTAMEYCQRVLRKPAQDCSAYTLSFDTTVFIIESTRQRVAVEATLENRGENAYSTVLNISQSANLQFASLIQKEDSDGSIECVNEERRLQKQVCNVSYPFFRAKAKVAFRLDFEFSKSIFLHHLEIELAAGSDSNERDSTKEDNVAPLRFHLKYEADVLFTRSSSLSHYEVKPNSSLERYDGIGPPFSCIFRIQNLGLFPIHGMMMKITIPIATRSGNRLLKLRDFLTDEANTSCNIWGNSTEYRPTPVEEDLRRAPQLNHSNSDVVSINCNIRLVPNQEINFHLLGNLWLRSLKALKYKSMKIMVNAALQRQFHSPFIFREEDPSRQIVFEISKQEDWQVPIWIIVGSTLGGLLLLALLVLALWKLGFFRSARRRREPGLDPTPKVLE
# T2: human integrin α11 subunit (human, UniProt Q9UKX5 23-1188)
# T2 construct: whole, on cells; In C2C12-α11 cells and their lysates the human α11 chain is present as α11β1 heterodimer (the legend says 'Immunoprecipitation of integrin α11β1'); the β1 partner in the mouse cells is not described; In the staining and blot experiments cells were methanol fixed, lysed or the tissue was formalin fixed and paraffin embedded; also called alpha-11 integrin subunit; integrin chain α11
# T2 sequence (looked up): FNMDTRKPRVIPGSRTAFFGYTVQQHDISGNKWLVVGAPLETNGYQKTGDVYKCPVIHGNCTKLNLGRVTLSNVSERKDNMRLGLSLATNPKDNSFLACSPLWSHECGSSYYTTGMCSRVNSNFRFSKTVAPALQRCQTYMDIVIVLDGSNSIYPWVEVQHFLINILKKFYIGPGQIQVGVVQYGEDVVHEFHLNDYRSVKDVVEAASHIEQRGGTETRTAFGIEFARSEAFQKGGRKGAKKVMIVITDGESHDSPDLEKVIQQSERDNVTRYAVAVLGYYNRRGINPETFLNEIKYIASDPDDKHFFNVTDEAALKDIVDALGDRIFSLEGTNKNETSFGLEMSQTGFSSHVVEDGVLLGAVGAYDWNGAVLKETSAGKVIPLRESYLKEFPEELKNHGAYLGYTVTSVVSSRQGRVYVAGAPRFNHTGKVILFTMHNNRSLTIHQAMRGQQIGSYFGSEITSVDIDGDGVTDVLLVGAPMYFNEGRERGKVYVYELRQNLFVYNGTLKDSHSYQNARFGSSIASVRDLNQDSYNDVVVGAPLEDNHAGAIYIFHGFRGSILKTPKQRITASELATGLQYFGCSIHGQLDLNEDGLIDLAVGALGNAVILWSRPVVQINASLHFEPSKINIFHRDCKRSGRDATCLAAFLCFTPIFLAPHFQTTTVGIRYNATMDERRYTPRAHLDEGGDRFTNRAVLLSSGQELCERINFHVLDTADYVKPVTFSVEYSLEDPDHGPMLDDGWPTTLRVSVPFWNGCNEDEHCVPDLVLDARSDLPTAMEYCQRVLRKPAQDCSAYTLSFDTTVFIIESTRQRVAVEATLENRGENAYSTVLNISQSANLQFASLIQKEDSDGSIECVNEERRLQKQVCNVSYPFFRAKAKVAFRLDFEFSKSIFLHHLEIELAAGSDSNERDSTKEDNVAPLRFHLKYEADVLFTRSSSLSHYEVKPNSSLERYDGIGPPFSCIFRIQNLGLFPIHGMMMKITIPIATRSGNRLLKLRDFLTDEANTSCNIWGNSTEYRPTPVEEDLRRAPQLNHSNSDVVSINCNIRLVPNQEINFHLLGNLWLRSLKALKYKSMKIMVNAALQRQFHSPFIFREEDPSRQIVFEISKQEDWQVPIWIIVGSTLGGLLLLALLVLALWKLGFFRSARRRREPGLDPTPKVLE
# How the values were obtained:
# human integrin α11-EGFP = target: T1, human integrin α11-EGFP; test: Western blot on C2C12-hu α11-EGFP lysate (FIG. 1D)
# [1] = target: T2, human integrin α11 subunit; test: immunoprecipitation from C2C12-α11 cell lysate, Western blot detection with the polyclonal α11 antibody (FIG. 1C)
# Procedure: FIG. 1. Immunological characterization of 210F4B6A4 mAb [0019] A-B. C2C12 mouse myoblast cells expressing human integrin α11-EGFP or WT (wildtype) C2C12 cells were stained with 210F4B6A4 mAb for 1 hour at 4° C. Cells were then washed and stained with goat anti-mouse R-Phycoerythrin IgG. Samples were analysed by flow cytometry using Intellicyt iQue and fluorescence intensity was measured. [0020] C. Immunoprecipitation (IP) of integrin α11β1 with the 210F4B6A4 mAb and the polyclonal α11 antibody (α11 pAb)[5]. Protein bands of integrin chain α11 at the expected size after immunoprecipitation using α11 antibodies followed by Western blotting and detection using the polyclonal α11 antibody. [0021] D. Western-blotting (WB) using the α11 210F4B6A4 mAb on C2C12-hu α11-EGFP lysate, shown is the protein band of expected size of aα11-EGFP (180 kDa). [0022] E. C2C12 mouse myoblast cells expressing human integrin α11 were allowed to attach on collagen I-cocated coverslips for 2 hours, cell were then fixed with methanol and incubated with 210F4B6A4 mAb or control IgG. Bound antibody was detected using goat anti-mouse Alexa Fluor 594. Integrin α11 staining in cell focal adhesions is indicated by white arrowheads. […]
binder,measurement,setting,value
"monoclonal mouse anti-human integrin alpha-11 antibody clone 210 F4B6A4 produced by the hybridoma deposited as DSM ACC3320 (antibody, V domains shown, Mouse monoclonal antibody from hybridoma (used partly as hybridoma supernatant); also called 210F4B6A4 mAb; F210F4B6A4) VH: EVQLQQSGAELVRPGASVKVSCTASGFNIKDDYIHWMRRRPAQGLEWIGWIDPENGDTEYASNFQGKATTTVDVSSNTAYLQLSRLTSEDTAIYYCSREYAYWGQGTLVTVSA VL: DVVMTQTPLSLPVSLGDQASISCRSSQSLLYSNGNTYLQWYLQKPGQSPKLLIYRASNRFSGVPDRFSGSGSGTDFTLKISRVEAEDLGVYFCSQSTHVPWTFGGGTKLEIK",binding result,human integrin α11-EGFP,binds
same,binding result,[1],binds
